Earlier results, collected in paper PMC7851832.

Molecular target: FGFR2 (Homo sapiens) (UniProt P21802)
Sequence (P21802 22-821): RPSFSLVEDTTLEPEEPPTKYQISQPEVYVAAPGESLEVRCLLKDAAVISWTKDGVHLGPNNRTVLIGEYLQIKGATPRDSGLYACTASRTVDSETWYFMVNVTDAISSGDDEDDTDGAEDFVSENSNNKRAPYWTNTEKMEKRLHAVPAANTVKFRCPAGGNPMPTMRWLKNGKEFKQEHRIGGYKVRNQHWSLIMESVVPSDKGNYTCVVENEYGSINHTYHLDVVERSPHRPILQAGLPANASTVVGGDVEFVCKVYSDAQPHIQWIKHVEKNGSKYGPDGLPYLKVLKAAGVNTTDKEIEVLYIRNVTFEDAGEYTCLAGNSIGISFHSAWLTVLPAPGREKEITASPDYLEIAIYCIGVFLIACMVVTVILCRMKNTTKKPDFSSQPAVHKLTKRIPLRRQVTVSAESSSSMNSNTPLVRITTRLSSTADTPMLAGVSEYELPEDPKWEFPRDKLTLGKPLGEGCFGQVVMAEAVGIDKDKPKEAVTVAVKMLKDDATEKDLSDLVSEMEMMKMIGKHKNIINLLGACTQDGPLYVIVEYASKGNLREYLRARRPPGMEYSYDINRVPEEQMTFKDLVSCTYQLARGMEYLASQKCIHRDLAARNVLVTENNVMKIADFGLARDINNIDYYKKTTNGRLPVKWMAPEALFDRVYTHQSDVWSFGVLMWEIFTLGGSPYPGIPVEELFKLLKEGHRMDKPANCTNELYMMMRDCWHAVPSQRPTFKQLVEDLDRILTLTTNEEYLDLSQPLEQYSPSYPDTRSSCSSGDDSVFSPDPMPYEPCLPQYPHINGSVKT

Sequence of FGF1 (P05230 16-155): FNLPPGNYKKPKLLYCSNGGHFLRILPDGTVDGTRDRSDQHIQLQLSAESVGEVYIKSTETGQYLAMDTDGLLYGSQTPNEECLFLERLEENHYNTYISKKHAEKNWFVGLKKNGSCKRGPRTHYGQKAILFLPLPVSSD

## FGF1 (from UniProt P05230)
  Kd: 0.3 µM
